Patent publication US20260185070A1, “CRISPR-Cas Effector Polypeptides, Lipid Nanoparticles, and Methods of Use Thereof” (The Regents of the University of California, priority 2022, published 2026)

What was measured:
NPCs = test: NPC viability with LNPs containing different pegylated lipids; assay type: cell-based, mouse
Description: Several pegylated lipids, commercial and synthetic, were examiner for their ability to encapsulate and deliver iGeoCas9 RNPs in LNPs (FIG. 48c). […] The reduced toxicity and enhanced delivery efficiency of these 3 PEGylated lipids stems from the pH-sensitive, acid-degradable acetal linker used in their synthesis (FIG. 49): the labile acetal linker could be cleaved in the late endosome stage of LNP delivery with a pH of 5-6, which frees the PEG moiety from the lipid molecules to reduce cytotoxicity and meanwhile destabilizes the endosome to promote the release of RNP into the cytosol. Further optimization of other parameters (e.g., mole and volume ratios of lipids to RNP, and salt concentration in the buffer, FIG. 50b) in LNP assembly established two sets of lipid formulations, i.e., standard formula (with DOTAP as the cationic lipid) and cationic formula (with ADC as the cationic lipid), which encapsulate GeoCas9 RNPs with good particle uniformity (diameter: 170-180 nm, PDI: 0.13-0.17) (FIG. 41b).

[1] = tested on: EGFP transgene in a model HEK293T cell line; test: EGFP-to-BFP HDR by LNP co-delivery of RNP and ssDNA template in HEK293T cells; assay type: cell-based, human; settings: additive in RNP LNPs; in words
Description: It was investigated if the co-delivery of iGeoCas9 RNPs and ssDNA templates in LNPs could switch EGFP to the blue fluorescent protein (BFP) in a model HEK293T cell line (FIG. 43b). In this cell assay, editing of the chromophore Thr-Tyr-Gly in the EGFP transgene followed by HDR to install a Ser/Thr-His-Gly chromophore turns EGFP into BFP. Four sgRNAs, rEGFP-R1 to R4, were designed to target the coding and non-coding strands in the chromophore region for editing. To avoid possible recutting events after the incorporation of the desired edits, four ssDNA HDR templates were designed to introduce GFP-to-BFP edits together with additional silent mutations in the DNA sequence. […] The HDR level was quantified to be between 20-40% by flow cytometry with 50-75% of non-homologous end-joining (NHEJ) indicated as EGFP knockdown (FIGS. 4b and 51).
LNP delivery: 4-6.5k cells/well were seeded in 96-well plates 48 hours prior to LNP treatment (HEK293 cells: 4-5k. NPCs: 5-6k, and 16HBEge cells: 6-6.5k). The culture media was refreshed 24 hours after LNP treatment. HEK293T cells were split after 2 additional days with a ratio of […] based on cell confluency. […]
Cell fluorescence was assayed on an Attune NxT acoustic focusing cytometer (Thermo Fisher Scientific) equipped with 554 nm excitation laser and 585/16 emission filter (tdTomato). […] Data were analyzed using Attune Cytometric Software v5.1.1.

[2] = protein melting temperature, thermal shift assay; assay type: physicochemical
Description: Protein melting temperatures were measured using the thermal shift assay (GloMelt™, CAT #33021). The assay was performed on a quantitative PCR system with a temperature increase rate of 2° C./min. The protein melting temperatures were determined as the peak values in the derivative curves of the melting curves.

ccdB toxin gene = test: bacterial dual-plasmid selection assay (Cas9 cleavage of ccdB plasmid, survival rate); assay type: cell-based, E. coli; settings: for survival rate: sgRNA target sequence #6, PAM ggatGAAA
Description: A bacterial dual-plasmid selection system was employed for the directed evolution of GeoCas9, which has been successfully employed for engineering other CRISPR Cas effectors. […] To search for a reliable evolution starting point with minimal activity in the E. coli assay, 20 different sgRNAs that target the ccdB gene at the protospacers associated with different PAM sequences were screened (FIG. 46d) and selection under two sets of conditions was performed (37 C or 30 C for 1.5 hours). […] Libraries of GeoCas9 mutants were generated by targeting different domains of the protein for random mutagenesis (FIG. 46a) and then subjected to the selection system under the conditions at 30° C.
A chloramphenicol-resistant (CAM+) bacterial expression plasmid was built to have the insert gene of GeoCas9 together with its corresponding sgRNA that targets the ccdB gene in the selection plasmid with a PAM of GAAA (g6). Libraries of GeoCas9 mutants were generated by error-prone PCR to introduce random mutagenesis in three different regions (BH-Rec, RuvC-HNH-WED, and WED-PI). The error-prone PCR (with an error rate of 3- to 5-nucleotide mutations per kilobase) was carried out with the Taq DNA polymerase (New England BioLabs) in a reaction containing 2 μl of 10 mM primers, 1.5 μl of 10 mM MnCl2, 2 ng of template plasmid. The plasmid libraries were generated by ligating the mutated fragments with the remaining part of the plasmid through Gibson assembly. The plasmid libraries (-100 ng DNA after clean-up) were electroporated into 50 μl of electronically competent cells made from E. coli strain BW25141(DE3) that contains the selection plasmid encoding the arabinose-inducible ccdB toxin gene. After recovery of the electroporated bacteria in 750 μl of SOB for 1.5 hours at 30° C., the bacteria culture was concentrated; 1% of the total culture was plated onto a Petri agar dish containing only CAM (as control), and the remainder culture was plated on another Petri agar-dish containing both arabinose and CAM. […]

DMG-PEG
toxicity / biocompatibility with NPCs (NPCs): detrimental to NPC viability

heparin
effect of anionic polymer additive on editing levels [1]: reduced editing

B1: GeoCas9: Geobacillus stearothermophilus CRISPR-Cas effector polypeptide, SEQ ID NO: 1; thermostable type II-C Cas9 (protein, listed as Geobacillus stearothermophilus)
chain: MRYKIGLDIGITSVGWAVMNLDIPRIEDLGVRIFDRAENPQTGESLALPRRLARSARRRLRRRKHRLERIRRLVIREGILTKEELDKLFEEKHEIDVWQLRVEALDRKLNNDELARVLLHLAKRRGFKSNRKSERSNKENSTMLKHIEENRAILSSYRTVGEMIVKDPKFALHKRNKGENYTNTIARDDLEREIRLIFSKQREFGNMSCTEEFENEYITIWASQRPVASKDDIEKKVGFCTFEPKEKRAPKATYTFQSFIAWEHINKLRLISPSGARGLTDEERRLLYEQAFQKNKITYHDIRTLLHLPDDTYFKGIVYDRGESRKQNENIRFLELDAYHQIRKAVDKVYGKGKSSSFLPIDFDTFGYALTLFKDDADIHSYLRNEYEQNGKRMPNLANKVYDNELIEELLNLSFTKFGHLSLKALRSILPYMEQGEVYSSACERAGYTFTGPKKKQKTMLLPNIPPIANPVVMRALTQARKVVNAIIKKYGSPVSIHIELARDLSQTFDERRKTKKEQDENRKKNETAIRQLMEYGLTLNPTGHDIVKFKLWSEQNGRCAYSLQPIEIERLLEPGYVEVDHVIPYSRSLDDSYTNKVLVLTRENREKGNRIPAEYLGVGTERWQQFETFVLTNKQFSKKKRDRLLRLHYDENEETEFKNRNLNDTRYISRFFANFIREHLKFAESDDKQKVYTVNGRVTAHLRSRWEFNKNREESDLHHAVDAVIVACTTPSDIAKVTAFYQRREQNKELAKKTEPHFPQPWPHFADELRARLSKHPKESIKALNLGNYDDQKLESLQPVFVSRMPKRSVTGAAHQETLRRYVGIDERSGKIQTVVKTKLSEIKLDASGHFPMYGKESDPRTYEAIRQRLLEHNNDPKKAFQEPLYKPKKNGEPGPVIRTVKIIDTKNQVIPLNDGKTVAYNSNIVRVDVFEKDGKYYCVPVYTMDIMKGILPNKAIEPNKPYSEWKEMTEDYTFRFSLYPNDLIRIELPREKTVKTAAGEEINVKDVFVYYKTIDSANGGLELISHDHRFSLRGVGSRTLKRFEKYQVDVLGNIYKVRGEKRVGLASSAHSKPGKTIRPLQSTRD
Tm (thermostability) [2]: 60 °C
survival rate (ccdB toxin gene; selection 30° C. for 1.5 hours): < 0.1%
survival rate (ccdB toxin gene; selection 37 C for 1.5 hours): 2-5%
survival in the bacterial assay (ccdB toxin gene; validation of selected mutant vs wild-type, temperature not stated): < 5%
